This is an account of results in patent US6777536 (Harvard, dated 2004).

B1: mek4-AP soluble receptor fusion protein (mouse Mek4 receptor extracellular domain fused to secreted human placental alkaline phosphatase) (receptor)
chain: ELSPQPSNEVNLLDSKTIQGELGWISYPSHGWEEISGVDEHYTPIRTYQVCNVMDHSQNNWLRTNWVPRNSAQKIYVELKFTLRDCNSIPLVLGTCKETFNLYYMESDDHGVKFREHQFTKIDTIAADESFTQMDLGDRILKLNTEIREVGPVNKKGFYLAFQDVGACVALVSVRVYFKKCPFTVKNLAMFPDTVPMDSQSLVEVRGSCVNNSKEEDPPRMYCSTEGEWLVPIGKCTCNAGYEERGFICQACRPGFYKASDGAAKCAKCPPHSSTQEDGSMNCRCENNYFRAEKDPPSMACARPPSAPRNVISNINETSVILDWSWPLDTGGRKDITFNIICKKCGWNVRQCEPCSPNVRFLPRQLGLTNTTVTVTDLLAHTNYTFEIDAVNGVSELSSPPRQYAAVSITTNQAAPSPVMTIKKDRTSRNSISLSWQEPEHPNGIILDYEVKYYQKQEQETSYTILRARGTNVTISSLKPDTTYVFQIRARTAAGYGTNSRKFEFETSPDSFSISGENSHGSSG
notes: extracellular domain; Used as unpurified conditioned supernatant of stably transfected NIH-3T3 cells; Apparent molecular weight about 150 kD; also called AP-mek4; not shown: secreted human placental alkaline phosphatase, as encoded by vector APtag-1 (Flanagan and Leder 1990)
B2: Elf-1 (mouse EPH ligand family-1), expressed on the surface of transiently transfected COS cells (ligand)
chain: RNEDPARANADRYAVYWNRSNPRFQVSAVGDGGGYTVEVSINDYLDIYCPHYGAPLPPAERMERYILYMVNGEGHASCDHRQRGFKRWECNRPAAPGGPLKFSEKFQLFTPFSLGFEFRPGHEYYYISATPPNLVDRPCLRLKVYVRPTNETLYEAPEPIFTSN
modifications: C-terminal glycosyl phosphatidylinositol anchor (sensitive to PI-PLC); attachment residue not stated
notes: The full-length cDNA (209 amino acids) was transfected; also called muElf-1; cell surface Elf-1

The target in experiment [1] is T1, cell surface ligand expressed endogenously in the rat liver stromal cell line BRL-3A (rat).
T1 construct: PI-PLC sensitive (GPI-linked) cell surface ligand; also called endogenous ligand of BRL-3A cells
In words: Scatchard analysis of AP fusion binding to BRL-3A cells (endogenous ligand). On the procedure:
(§1) (FIGS. 3A and 3D) Cells were treated with saturating amounts of mek4-AP or sek-AP, or with AP, each at 500 OD/hr/ml. Columns show the average of two binding determinations, and error bars indicate the difference between the two. (FIGS. 3B–C and 3E–F) show the Scatchard analyses of binding. (FIGS. 3A–3C illsutrate binding to COS cells transfected with Elf-1, and FIGS. 3D–F show endogenous ligand expression by the BRL-3A cell line).
A panel of cell lines was tested with mek4-AP and sek-AP for endogenous expression of a cell surface ligand. Briefly, cells were treated with supernatants containing mek4-AP, sek-AP or unfused AP as a control, each at 1,000 OD/hr/ml. The cells were then washed, lysed and assayed colorimetrically for bound AP activity. […] The highest binding was shown by the rat liver stromal cell line BRL-3A, the mink lung fibroblast line Mv1Lu, and two neural crest cell lines, NC7mycblue and NC7EIablue. The BRL-3A cell line was analyzed further. […] The number of binding sites per BRL-3A cell is approximately 50,000. In situ staining was also used to examine the cell surface binding of mek4-AP and sek-AP to BRL-3A cells, and indicated expression of the ligand over the whole cell surface.

Experiment [2] has as its target T2, sek-AP soluble receptor fusion protein (mouse Sek receptor extracellular domain fused to secreted human … (mouse; human, UniProt Q03137 20-547).
T2 construct: extracellular domain; Used as unpurified conditioned supernatant of stably transfected NIH-3T3 cells; Apparent molecular weight about 150 kD; also called Ap-sek; not shown: secreted human placental alkaline phosphatase, as encoded by vector APtag-1 (Flanagan and Leder 1990)
In words: Scatchard analysis, COS cells transfected with Elf-1.

Experiment [3] deals with B1. The experiment is described as above.
In experiment [4] the target is T2, sek-AP soluble receptor fusion protein …. The experiment can be described thus: Scatchard analysis of AP fusion binding to COS cells transfected with Elf-1, colorimetric assay of bound AP activity. On the procedure:
as §1

Experiment [5] addresses B1. The experiment is described as above. The procedure:
as §1

T2 sequence (Q03137 other isoform, or with tags, fused parts or gaps): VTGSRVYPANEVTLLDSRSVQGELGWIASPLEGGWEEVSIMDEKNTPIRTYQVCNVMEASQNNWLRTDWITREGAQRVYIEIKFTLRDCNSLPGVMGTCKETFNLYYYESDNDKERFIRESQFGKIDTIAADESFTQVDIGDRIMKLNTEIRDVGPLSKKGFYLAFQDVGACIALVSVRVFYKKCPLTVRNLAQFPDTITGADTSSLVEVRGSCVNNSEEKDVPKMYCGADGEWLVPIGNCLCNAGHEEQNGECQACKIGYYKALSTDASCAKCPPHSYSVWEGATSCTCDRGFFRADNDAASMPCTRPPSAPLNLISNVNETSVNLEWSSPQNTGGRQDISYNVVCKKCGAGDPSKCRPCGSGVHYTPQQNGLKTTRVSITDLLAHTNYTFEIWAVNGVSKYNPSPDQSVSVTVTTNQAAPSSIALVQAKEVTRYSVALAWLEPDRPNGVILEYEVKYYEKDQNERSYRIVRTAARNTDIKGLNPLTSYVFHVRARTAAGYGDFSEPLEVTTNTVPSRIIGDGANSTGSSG

Take B1: the Kd (commonly the free concentration of one partner at which half of the binding sites on the other are occupied at equilibrium, for simple one-to-one binding) in experiment [1] is 1.3 nM.

For B2, the dissociation constant Kd in experiment [2] is around 10 nM; in experiment [3], around 1 nM; in experiment [4] it was 18 nM; in experiment [5], 1.8 nM.
